Test results taken from patent US8344120B2, “Nucleic acid molecules encoding rage fusion proteins” (TransTech Pharma, Inc., priority 2006, dated 2013).

Key:
[1] = tested on: diabetic rat model of restenosis; test: Diabetic rat model of restenosis; format: in vivo, rats; details: for Intimal area / Medial area: IP, 21 days
Experimental: Use of the RAGE fusion proteins in the treatment of diabetes related pathology is illustrated in FIG. 14.
In these experiments, balloon injury of left common carotid artery was performed in Zucker diabetic and nondiabetic rats using standard procedure. […] A maintenance dose was delivered every other day until day 7 after injury (i.e., at day 1, 3, 5 and 7 after injury). The maintenance dose was high=1 mg/animal for one group, or low=0.3 mg/animal for the second group. To measure vascular smooth muscle cell (VSMC) proliferation, animals were sacrificed at 4 days and 21 days after injury.
For the measurement of cell proliferation, 4 day animals received intraperitoneal injection of bromodeoxyuridine (BrDdU) 50 mg/kg at 18, 12, and 2 hours before euthanasia. After sacrifice, the entire left and right carotid arteries were harvested. Specimens were stored in Histochoice for at least 24 hours before embedding. Assessment of VSMC proliferation was performed using mouse anti-BrdU monoclonal antibody. A fluorescence labeled goat anti-mouse secondary antibody was applied. The number of BrdU-positive nuclei per section were counted by two observers blinded to the treatment regimens.
The remaining rats were sacrificed at 21 days for morphometric analysis. Morphometric analyses were performed by an observer blinded to the study groups, using computerized digital microscopic planimetry software Image-Pro Plus on serial sections, ([…]) carotid arteries stained by Van Gieson staining. All data were expressed as mean±SD. Statistical analysis was performed with use of SPSS software. Continuous variables were compared using unpaired t tests. A values of P≦0.05 was considered to be statistically significant.
In FIG. 14B, the y-axis represents the number of BrdU proliferating cells.

[2] = tested on: S100b/RAGE-induced production of TNF-α in THP-1 cells; test: S100b/RAGE-induced production of TNF-α in THP-1 cells; format: cell-based; details: 10 μg protein, 24 hours
From the text: Use of the RAGE fusion proteins of the present invention to modulate expression of the cellular effector TNF-α is shown in FIG. 10. THP-1 myeloid cells may be cultured in RPMI-1640 media supplemented with 10% FBS and induced to secrete TNF-α via stimulation of RAGE with S100b. When such stimulation occurs in the presence of a RAGE fusion protein, induction of TNF-α by S100b binding to RAGE may be inhibited.
Previous work has shown that the myeloid THP-1 cells may secrete TNF-α in response to RAGE ligands. In this assay, THP-1 cells were cultured in RPMI-1640 media supplemented with 10% FBS using a protocol provided by ATCC. […] The amount of TNF-α secreted by the THP-1 cells was measured 24 hours after the addition of the proteins to the cell culture using a commercially available ELISA kit for TNF-α (R&D Systems, Minneapolis, Minn.).

[3] = biological target: T1, amyloid-beta (Abeta) (Homo sapiens, UniProt P05067); test: In vitro ligand binding ELISA, immobilized amyloid-beta; details: ligand 5 micrograms per well; fusion protein at increasing dilutions, 37° C. one hour
T1 construct: Amyloid Beta (1-40) from Biosource; purchased Biosource
T1 sequence (P05067 672-711 limits assumed): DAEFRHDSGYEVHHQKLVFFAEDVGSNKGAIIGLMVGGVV
Experimental: For example, the RAGE fusion protein may be used in a binding assay to identify potential RAGE ligands. In one example embodiment of such a binding assay, a known RAGE ligand may coated onto a solid substrate (e.g., Maxisorb plates) at a concentration of about 5 micrograms per well, where each well contains a total volume of about 100 microliters (4). The plates may be incubated at 4° C. overnight to allow the ligand to absorb or bind to the substrate. Alternatively, shorter incubation periods at higher temperature (e.g., room temperature) may be used. […] The RAGE fusion protein bound to the immobilized ligand may be detected in a variety of ways. […] The bound complex may be detected by adding the alkaline phosphatase substrate, para-nitrophenylphosphate (PNPP), and measuring conversion of PNPP to para-nitrophenol (PNP) as an increase in absorbance at 405 nm. […] In the absence of ligand (i.e., coating with only BSA) there was no increase in absorbance. […] Binding was detected by the addition of an immunodetection complex containing a monoclonal mouse anti-human IgG1 diluted 1:11,000 to a final assay concentration (FAC) of 21 ng/100 μL, a biotinylated goat anti-mouse IgG diluted 1:500, to a FAC of […], and an avidin-linked alkaline phosphatase. […]

[4] = High dose 1.0 mg/animal qod × 4, loading dose 3 mg/animal
[5] = Low dose 0.3 mg/animal qod × 4, loading dose 3 mg/animal

B1: TTP-4000: four domain RAGE fusion protein: human RAGE N-terminal sequence (to position 251) linked to human IgG Fc (γ1) without hinge; SEQ ID NO: 34/56 (protein)
chain: QNITARIGEPLVLKCKGAPKKPPQRLEWKLNTGRTEAWKVLSPQGGGPWDSVARVLPNGSLFLPAVGIQDEGIFRCQAMNRNGKETKSNYRVRVYQIPGKPEIVDSASELTAGVPNKVGTCVSEGSYPAGTLSWHLDGKPLVPNEKGVSVKEQTRRHPETGLFTLQSELMVTPARGGDPRPTFSCSFSPGLPRHRALRTAPIQPRVWEPVPLEEVQLVVEPEGGAVAPPSVFLFPPKPKDTLMISRTPEVTCVVVDVSHEDPEVKFNWYVDGVEVHNAKTKPREEQYNSTYRVVSVLTVLHQDWLNGKEYKCKVSNKALPAPIEKTISKAKGQPREPQVYTLPPSRDELTKNQVSLTCLVKGFYPSDIAVEWESNGQPENNYKTTPPVLDSDGSFFLYSKLTVDKSRWQQGNVFSCSVMHEALHNHYTQKSLSLSPGK
vascular smooth muscle cell proliferation (BrdU-positive nuclei) ([1]; 4 days after injury, dose-responsive): significantly reduced | Intimal area [1, 4]: 0.16 ± 0.02 mm^2 | Medial area [1, 4]: 0.11 ± 0.01 mm^2 | Intimal area [1, 5]: 0.18 ± 0.04 mm^2 | Medial area [1, 5]: 0.11 ± 0.02 mm^2 | reduction of S100b induction of TNF-α ([2]; S100b 0.1 mg/ml FAC): ~70% | S100b induction of TNF-α, comparison in words ([2]; S100b 0.1 mg/ml): at least as effective in blocking S100b induction of TNF-α as is sRAGE | binding to immobilized amyloid-beta (increase in absorbance at 405 nm) [3]: specifically interact
